In patent US20060035214, “Screening methods for identifying inhibitors of herpesviral replication” (IRM LLC, a Delaware Limited Liability Company, published 2006):

Tests used:
PDX1 [1] = molecular target: T1, PDX1 (UniProt P52945 P52945:1-283); assay: EMSA; conditions: tags: pCITE-PDX1, TNT reticulocyte lysate; label: radiolabel
CDP (CUX1) = CDP (CUX1) (UniProt P39880 P39880:1-1505); assay: EMSA; conditions: tags: pCITE-CDP, TNT reticulocyte lysate; label: radiolabel
SATB1 = molecular target: T2, SATB1 (UniProt Q01826 Q01826:1-763); assay: EMSA; conditions: tags: pCITE-SATB1, TNT reticulocyte lysate; label: radiolabel
T2 sequence: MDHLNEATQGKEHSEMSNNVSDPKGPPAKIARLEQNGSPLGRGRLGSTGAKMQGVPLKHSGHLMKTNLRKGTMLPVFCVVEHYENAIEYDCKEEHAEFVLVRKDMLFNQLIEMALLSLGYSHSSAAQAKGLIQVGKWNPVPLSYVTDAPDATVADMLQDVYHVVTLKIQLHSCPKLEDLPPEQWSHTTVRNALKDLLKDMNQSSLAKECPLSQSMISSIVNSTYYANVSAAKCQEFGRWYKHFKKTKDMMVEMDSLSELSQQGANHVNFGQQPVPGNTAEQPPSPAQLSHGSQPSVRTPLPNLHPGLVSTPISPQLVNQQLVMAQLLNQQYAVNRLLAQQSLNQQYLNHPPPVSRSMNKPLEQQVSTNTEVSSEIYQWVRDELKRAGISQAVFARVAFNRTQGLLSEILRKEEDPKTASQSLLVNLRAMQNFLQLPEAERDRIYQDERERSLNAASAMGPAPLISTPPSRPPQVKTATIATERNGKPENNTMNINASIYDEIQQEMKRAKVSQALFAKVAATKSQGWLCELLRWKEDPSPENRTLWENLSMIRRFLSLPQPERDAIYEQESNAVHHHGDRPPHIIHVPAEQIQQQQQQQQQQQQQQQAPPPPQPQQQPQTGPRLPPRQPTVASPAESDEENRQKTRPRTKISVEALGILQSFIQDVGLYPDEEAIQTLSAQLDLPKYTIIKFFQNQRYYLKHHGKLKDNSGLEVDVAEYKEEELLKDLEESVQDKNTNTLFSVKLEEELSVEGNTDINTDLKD

PDX1 [2] = molecular target: T1, PDX1; assay: EMSA; positive control; conditions: tags: pCITE-PDX1, TNT reticulocyte lysate; label: radiolabel

Sequence of CDP (CUX1) (P39880 whole entry, one chain of several): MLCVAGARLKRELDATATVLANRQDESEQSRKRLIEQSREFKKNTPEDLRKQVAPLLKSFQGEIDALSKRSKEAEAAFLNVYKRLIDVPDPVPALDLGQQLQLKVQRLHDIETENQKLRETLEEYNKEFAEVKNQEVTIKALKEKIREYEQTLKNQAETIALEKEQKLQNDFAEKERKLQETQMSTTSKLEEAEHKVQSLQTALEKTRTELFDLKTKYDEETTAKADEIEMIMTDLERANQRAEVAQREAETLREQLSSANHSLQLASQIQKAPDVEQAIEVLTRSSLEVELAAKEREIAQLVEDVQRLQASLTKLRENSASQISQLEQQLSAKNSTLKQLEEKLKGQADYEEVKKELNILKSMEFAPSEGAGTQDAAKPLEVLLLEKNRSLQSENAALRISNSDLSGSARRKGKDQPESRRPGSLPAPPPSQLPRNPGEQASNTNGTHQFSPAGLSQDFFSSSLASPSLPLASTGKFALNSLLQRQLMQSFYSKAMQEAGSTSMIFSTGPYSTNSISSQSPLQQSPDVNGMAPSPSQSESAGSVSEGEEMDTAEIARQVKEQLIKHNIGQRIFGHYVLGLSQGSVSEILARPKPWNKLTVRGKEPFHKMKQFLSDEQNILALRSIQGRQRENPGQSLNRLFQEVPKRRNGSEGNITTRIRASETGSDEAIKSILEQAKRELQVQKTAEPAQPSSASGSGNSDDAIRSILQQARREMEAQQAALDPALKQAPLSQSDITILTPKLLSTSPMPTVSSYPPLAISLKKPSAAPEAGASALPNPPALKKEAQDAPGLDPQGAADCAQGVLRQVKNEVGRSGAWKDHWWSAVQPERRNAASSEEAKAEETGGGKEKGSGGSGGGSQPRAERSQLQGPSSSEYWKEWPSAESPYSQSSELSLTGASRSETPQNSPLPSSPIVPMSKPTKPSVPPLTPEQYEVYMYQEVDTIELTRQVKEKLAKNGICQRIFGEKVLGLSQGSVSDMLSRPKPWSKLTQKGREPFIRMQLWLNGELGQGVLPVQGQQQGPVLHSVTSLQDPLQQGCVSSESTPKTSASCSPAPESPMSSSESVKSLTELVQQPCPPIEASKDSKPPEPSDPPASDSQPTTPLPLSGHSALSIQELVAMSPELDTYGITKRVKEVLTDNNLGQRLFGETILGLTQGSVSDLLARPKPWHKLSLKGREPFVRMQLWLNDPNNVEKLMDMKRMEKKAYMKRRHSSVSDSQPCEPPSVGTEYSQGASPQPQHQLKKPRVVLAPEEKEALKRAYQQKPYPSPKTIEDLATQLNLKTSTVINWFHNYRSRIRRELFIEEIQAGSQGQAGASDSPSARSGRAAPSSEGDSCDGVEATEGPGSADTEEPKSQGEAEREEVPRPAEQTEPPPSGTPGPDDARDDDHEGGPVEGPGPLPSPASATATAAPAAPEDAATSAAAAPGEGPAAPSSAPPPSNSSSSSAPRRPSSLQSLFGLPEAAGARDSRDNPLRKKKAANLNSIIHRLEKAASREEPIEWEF
T1 sequence (P52945 whole entry, one chain of several): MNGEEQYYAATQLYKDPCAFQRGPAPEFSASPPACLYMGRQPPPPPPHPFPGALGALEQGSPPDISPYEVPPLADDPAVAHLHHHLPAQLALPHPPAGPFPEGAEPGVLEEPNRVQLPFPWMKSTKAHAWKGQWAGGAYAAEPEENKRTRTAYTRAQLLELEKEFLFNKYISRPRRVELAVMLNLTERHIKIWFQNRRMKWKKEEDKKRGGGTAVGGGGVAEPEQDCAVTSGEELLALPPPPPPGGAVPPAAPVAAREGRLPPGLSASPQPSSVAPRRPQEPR

B1: CMV-639 to -594 (dsDNA)
DNA 1: TATATGTACATTTATATTGGCTCATGTCCAATATGACCGCCATGTTGGCATTGATT
DNA 2: AATCAATGCCAACATGGCGGTCATATTGGACATGAGCCAATATAAATGTACATATA
B1: no binding (PDX1 [1]); no binding (CDP (CUX1)); no binding (SATB1).

B2: CMV-593 to -549 (dsDNA)
DNA 1: GGCATTGATTATTGACTAGTTATTAATAGTAATCAATTACGGGGTCATTAGTTCA
DNA 2: TGAACTAATGACCCCGTAATTGATTACTATTAATAACTAGTCAATAATCAATGCC
B2: binds (CDP (CUX1)); binds (PDX1 [2]).

B3: CMV-687 to -640 (dsDNA)
DNA 1: TAAATCAATATTGGCTATTGGCCATTGCATACGTTGTATCTATATCATAATATGTACA
DNA 2: TGTACATATTATGATATAGATACAACGTATGCAATGGCCAATAGCCAATATTGATTTA
B3: binds (CDP (CUX1)).
